According to the supplement of paper PMC7125110:
± gives the standard error. Variants at the floor of the assay were thinned out.

B1: glmS ribozyme (parent)
chain: AUAAAAGCGCCAGAACUACAGAAAUGUAGUUGACGAGGAGGAGGUUUAUCGAAUUUUCGGCGGAUGCCUCCAAA

Assays:
Settings in all cases: with glucosamine-6-phosphate
glucosamine-6-phosphate [1] = variants of: B1; experiment: self-cleavage kobs at 40 uM GlcN6P; higher = faster cleavage; RNA array
Summary of the method: (§1)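 Glucosamine-6-phosphate in HEPES/KCl/Mg(OAc)2 buffer, at 40 μM to 10 mM, was flowed over barcoded ribozyme variants transcribed in situ by E. coli RNA polymerase on sequenced MiSeq chips. Tracking was through a hybridised Cy3 probe at 37 °C. kobs, kcat and KM came from exponential decay fits and weighted Michaelis–Menten fits of normalised per-tile medians.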

glucosamine-6-phosphate [2] = variants of: B1; experiment: self-cleavage kobs at 10000 uM GlcN6P; higher = faster cleavage; RNA array
Summary of the method: as §1

glucosamine-6-phosphate [3] = variants of: B1; experiment: self-cleavage kobs at 160 uM GlcN6P; higher = faster cleavage; RNA array
Summary of the method: as §1

glucosamine-6-phosphate [4] = variants of: B1; experiment: self-cleavage kobs at 640 uM GlcN6P; higher = faster cleavage; RNA array
Summary of the method: as §1

glucosamine-6-phosphate [5] = variants of: B1; experiment: self-cleavage kobs at 2500 uM GlcN6P; higher = faster cleavage; RNA array
Summary of the method: as §1

Row | Variant | self-cleavage kobs at 40 uM GlcN6P (glucosamine-6-phosphate [1]) | self-cleavage kobs at 10000 uM GlcN6P (glucosamine-6-phosphate [2]) | self-cleavage kobs at 160 uM GlcN6P (glucosamine-6-phosphate [3]) | self-cleavage kobs at 640 uM GlcN6P (glucosamine-6-phosphate [4]) | self-cleavage kobs at 2500 uM GlcN6P (glucosamine-6-phosphate [5])
1 | U30G A33U U56A G63U G66U | < 1e-05 s⁻¹ | < 1e-05 s⁻¹ | – | – | –
2 | U31A A36G | < 1e-05 s⁻¹ | – | < 1e-05 s⁻¹ | < 1e-05 s⁻¹ | –
3 | U31A G63A | < 1e-05 s⁻¹ | < 1e-05 s⁻¹ | – | – | –
4 | U31A G63U | < 1e-05 s⁻¹ | < 1e-05 s⁻¹ | < 1e-05 s⁻¹ | < 1e-05 s⁻¹ | < 1e-05 s⁻¹
5 | U30A U45C A48C | < 1e-05 s⁻¹ | – | – | – | –
6 | U30G A64U | < 1e-05 s⁻¹ | – | < 1e-05 s⁻¹ | – | –
7 | G29A A39C G59U | < 1e-05 s⁻¹ | – | – | – | –
8 | U30C A33C U47G | < 1e-05 s⁻¹ | < 1e-05 s⁻¹ | – | – | –
9 | G29A G38A A39U | < 1e-05 s⁻¹ | < 1e-05 s⁻¹ | – | < 1e-05 s⁻¹ | –
10 | G29A U55G G60C | < 1e-05 s⁻¹ | – | – | – | –
11 | U30A A48U | < 1e-05 s⁻¹ | 4.05e-05 ± 1.5e-05 s⁻¹ | – | – | –
12 | G29C G60A | < 1e-05 s⁻¹ | < 1e-05 s⁻¹ | < 1e-05 s⁻¹ | – | < 1e-05 s⁻¹
13 | G29C G32U C34A C50G U65G C68G | 8.78e-05 ± 3.1e-05 s⁻¹ | 4.42e-05 ± 1.7e-05 s⁻¹ | 0.000304 ± 5.8e-05 s⁻¹ | 8.65e-05 ± 2.9e-05 s⁻¹ | 0.000304 ± 7.2e-05 s⁻¹
14 | U30C A39U C68A | < 1e-05 s⁻¹ | < 1e-05 s⁻¹ | – | – | –
15 | U30A G59A G60C C71A | < 1e-05 s⁻¹ | < 1e-05 s⁻¹ | – | – | –
16 | G29U G32C C61G | < 1e-05 s⁻¹ | < 1e-05 s⁻¹ | – | – | –
17 | U30C U31A G35U G37C | < 1e-05 s⁻¹ | – | – | – | –
18 | G29A U69C | 6.51e-05 ± 1.6e-05 s⁻¹ | 0.000486 ± 0.00013 s⁻¹ | 7e-05 ± 1.3e-05 s⁻¹ | 0.000122 ± 2.2e-05 s⁻¹ | 0.000105 ± 1.6e-05 s⁻¹
19 | U30A U69G | < 1e-05 s⁻¹ | – | – | – | –
20 | G29U A36U A52G | < 1e-05 s⁻¹ | – | – | – | –
21 | G29U C50G | 5.51e-05 ± 1.5e-05 s⁻¹ | – | 0.000992 ± 0.0003 s⁻¹ | 5.49e-05 ± 1.4e-05 s⁻¹ | –
22 | G29C U47G C68G | 7.83e-05 ± 2.3e-05 s⁻¹ | 3.71e-05 ± 1.3e-05 s⁻¹ | – | – | –
23 | U30C U49A | < 1e-05 s⁻¹ | – | < 1e-05 s⁻¹ | < 1e-05 s⁻¹ | –
24 | U31A A53G C61A | < 1e-05 s⁻¹ | < 1e-05 s⁻¹ | – | – | < 1e-05 s⁻¹
25 | U30A A33U G41U A53C G60A C68G | < 1e-05 s⁻¹ | < 1e-05 s⁻¹ | < 1e-05 s⁻¹ | < 1e-05 s⁻¹ | –
